Changes are numbered by the printed parent chain.

Sequences and labels used below:
T1: recombinant, phycoerythrin (PE) labeled, BCMA extracellular domain-FC fusion protein (BCMA-PE) (Homo sapiens (Human), UniProt Q02223 1-54, phycoerythrin (PE) label, site not stated)
T1 construct: Staining reagent; not shown: Fc part
T1 sequence: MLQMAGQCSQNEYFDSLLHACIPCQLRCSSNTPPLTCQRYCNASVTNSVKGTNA

B1: anti-BCMA CAR of recombinant lentivirus LV 11 (SEQ ID NO: 645) (other)
chain: EVQLLESGGGLVQPGGSLRLSCAASGFTFDEYTMHWFRQAPGKEREFVSAISGGGSETYYADSVKGRFTISRDNSKNTLYLQMNSLRAEDTAVYYCAAGGEEAGVGYWGQGTQVTVSSTTTPAPRPPTPAPTIASQPLSLRPEACRPAAGGAVHTRGLDFACDIYIWAPLAGTCGVLLLSLVITLYCKRGRKKLLYIFKQPFMRPVQTTQEEDGCSCRFPEEEEGGCELRVKFSRSADAPAYQQGQNQLYNELNLGRREEYDVLDKRRGRDPEMGGKPRRKNPQEGLYNELQKDKMAEAYSEIGMKGERRRGKGHDGLYQGLSTATKDTYDALHMQALPPR
notes: Chimeric antigen receptor on the surface of transduced cells; CD8α hinge and TM, CD137, CD3ζ
B2: anti-BCMA CAR of recombinant lentivirus LV 3 (SEQ ID NO: 261) (other)
chain: QVQLVESGGGVVQPGRSLRLSCAASGFTFSSYGMHWVRQAPGKGLEWVAVISYEGSNKYYADSVKGRFTISRDNSKNTLYLQMNSLRAEDTAVYYCARELGDGMDVWGQGTTVTVSSGGGGSGGGGSGGGGSGGGGSEIVLTQSPATLSLSPGERATLSCRASQSVSSYLAWFQQKPGQAPRLLIYDASNRATGIPARFSGSGSGTDFTLTISSLEPEDFAVYYCQQRVDLWTFGGGTKVEIKTTTPAPRPPTPAPTIASQPLSLRPEACRPAAGGAVHTRGLDFACDIYIWAPLAGTCGVLLLSLVITLYCKRGRKKLLYIFKQPFMRPVQTTQEEDGCSCRFPEEEEGGCELRVKFSRSADAPAYQQGQNQLYNELNLGRREEYDVLDKRRGRDPEMGGKPRRKNPQEGLYNELQKDKMAEAYSEIGMKGERRRGKGHDGLYQGLSTATKDTYDALHMQALPPR
notes: as for B1
B3: anti-BCMA CAR of recombinant lentivirus LV 12 (SEQ ID NO: 669) (other)
chain: EVQLLESGGGLVQPGGSLRLSCAASGFTFEDYAMSWFRQAPGKEREGVSAISGKGGSTYYADSVKGRFTISRDNSKNTLYLQMNSLRAEDTAVYYCAVLDEEAGAEGGYWGQGTQVTVSSTTTPAPRPPTPAPTIASQPLSLRPEACRPAAGGAVHTRGLDFACDIYIWAPLAGTCGVLLLSLVITLYCKRGRKKLLYIFKQPFMRPVQTTQEEDGCSCRFPEEEEGGCELRVKFSRSADAPAYQQGQNQLYNELNLGRREEYDVLDKRRGRDPEMGGKPRRKNPQEGLYNELQKDKMAEAYSEIGMKGERRRGKGHDGLYQGLSTATKDTYDALHMQALPPR
notes: as for B1
B4: anti-BCMA CAR of recombinant lentivirus LV 13 (SEQ ID NO: 693) (other)
chain: B3 chain with E30D, D31R, G53T, K54S, G56D
notes: as for B1
B5: anti-BCMA CAR of recombinant lentivirus LV 15 (SEQ ID NO: 741) (other)
chain: EVQLLESGGGLVQPGGSLRLSCAASGFTFDSYTMSWYRQAPGKERELVSAISGHGDSTYYADSVKGRFTISRDNSKNTLYLQMNSLRAEDTAVYYCTRISITTEWLAGDYWGQGTQVTVSSTTTPAPRPPTPAPTIASQPLSLRPEACRPAAGGAVHTRGLDFACDIYIWAPLAGTCGVLLLSLVITLYCKRGRKKLLYIFKQPFMRPVQTTQEEDGCSCRFPEEEEGGCELRVKFSRSADAPAYQQGQNQLYNELNLGRREEYDVLDKRRGRDPEMGGKPRRKNPQEGLYNELQKDKMAEAYSEIGMKGERRRGKGHDGLYQGLSTATKDTYDALHMQALPPR
notes: as for B1
B6: anti-BCMA CAR of recombinant lentivirus LV 10 (SEQ ID NO: 621) (other)
chain: EVQLLESGGGLVQPGGSLRLSCAASGFTFESEAMSWYRQAPGKERELVSVITSEGSTYYADSVKGRFTISRDNSKNTLYLQMNSLRAEDTAVYYCAHIEWETRLNWGQGTQVTVSSTTTPAPRPPTPAPTIASQPLSLRPEACRPAAGGAVHTRGLDFACDIYIWAPLAGTCGVLLLSLVITLYCKRGRKKLLYIFKQPFMRPVQTTQEEDGCSCRFPEEEEGGCELRVKFSRSADAPAYQQGQNQLYNELNLGRREEYDVLDKRRGRDPEMGGKPRRKNPQEGLYNELQKDKMAEAYSEIGMKGERRRGKGHDGLYQGLSTATKDTYDALHMQALPPR
notes: as for B1
B7: anti-BCMA CAR of recombinant lentivirus LV 5 (SEQ ID NO: 357) (other)
chain: QVQLVESGGGLVKPGGSLRLSCAASGFTFSDYYMSWIRQAPGKGLEWVSYISSSGSTIYYADSVKGRFTISRDNAKNSLYLQMNSLRAEDTAVYYCARDQGNYGVDVWGQGTTVTVSSGGGGSGGGGSGGGGSGGGGSDIQMTQSPSTLSASVGDRVTITCRASQSISSWLAWYQQKPGKAPKLLIYEASSLESGVPSRFSGSGSGTEFTLTISSLQPDDFATYYCQQSDSHPITFGGGTKVEIKTTTPAPRPPTPAPTIASQPLSLRPEACRPAAGGAVHTRGLDFACDIYIWAPLAGTCGVLLLSLVITLYCKRGRKKLLYIFKQPFMRPVQTTQEEDGCSCRFPEEEEGGCELRVKFSRSADAPAYQQGQNQLYNELNLGRREEYDVLDKRRGRDPEMGGKPRRKNPQEGLYNELQKDKMAEAYSEIGMKGERRRGKGHDGLYQGLSTATKDTYDALHMQALPPR
notes: as for B1
B8: anti-BCMA CAR of recombinant lentivirus LV 7 (SEQ ID NO: 477) (other)
chain: DIQMTQSPSSLSASVGDRVTITCRASQSISSYLNWYQQKPGKAPKLLIYAASSLQSGVPSRFSGSGSGTDFTLTISSLQPEDFATYYCQQAHSSPITFGGGTKVEIKGGGGSGGGGSGGGGSGGGGSEVQLLESGGGLVQPGGSLRLSCAASGFTFSNYAMSWVRQAPGKGLEWVSAISGSGGSTYYADSVKGRFTISRDNSKNTLYLQMNSLRAEDTAVYYCARPGDGYYEGVYFDYWGQGTLVTVSSTTTPAPRPPTPAPTIASQPLSLRPEACRPAAGGAVHTRGLDFACDIYIWAPLAGTCGVLLLSLVITLYCKRGRKKLLYIFKQPFMRPVQTTQEEDGCSCRFPEEEEGGCELRVKFSRSADAPAYQQGQNQLYNELNLGRREEYDVLDKRRGRDPEMGGKPRRKNPQEGLYNELQKDKMAEAYSEIGMKGERRRGKGHDGLYQGLSTATKDTYDALHMQALPPR
notes: as for B1
B9: anti-BCMA CAR of recombinant lentivirus LV 18 (SEQ ID NO: 837) (other)
chain: EVQLLESGGGLVQPGGSLRLSCAASGFTFSSEGMSWVRQAPGKERELVSAISGSGDHTYYADSVRGRFTISRDNSKNTLYLQMNSLRAEDTAVYYCNALEGGPTTAIQPGGPDYWGQGTQVTVSSTTTPAPRPPTPAPTIASQPLSLRPEACRPAAGGAVHTRGLDFACDIYIWAPLAGTCGVLLLSLVITLYCKRGRKKLLYIFKQPFMRPVQTTQEEDGCSCRFPEEEEGGCELRVKFSRSADAPAYQQGQNQLYNELNLGRREEYDVLDKRRGRDPEMGGKPRRKNPQEGLYNELQKDKMAEAYSEIGMKGERRRGKGHDGLYQGLSTATKDTYDALHMQALPPR
notes: as for B1
B10: anti-BCMA CAR of recombinant lentivirus LV 1 (SEQ ID NO: 189) (other)
chain: EIVLTQSPATLSLSPGERATLSCRASQSVSSYLAWYQQKPGQAPRLLIYDASNRATGIPARFSGSGSGTDFTLTISSLEPEDFAVYYCQQRVVYPITFGGGTKVEIKGGGGSGGGGSGGGGSGGGGSQITLKESGPTLVKPTQTLTLTCTFSGFSLSTSGVGVGWIRQPPGKALEWLALIYWNDEKRYSPSLKSRLTITKDTSKNQVVLTMTNMDPVDTAVYYCARDEYGGFDIWGQGTMVTVSSTTTPAPRPPTPAPTIASQPLSLRPEACRPAAGGAVHTRGLDFACDIYIWAPLAGTCGVLLLSLVITLYCKRGRKKLLYIFKQPFMRPVQTTQEEDGCSCRFPEEEEGGCELRVKFSRSADAPAYQQGQNQLYNELNLGRREEYDVLDKRRGRDPEMGGKPRRKNPQEGLYNELQKDKMAEAYSEIGMKGERRRGKGHDGLYQGLSTATKDTYDALHMQALPPR
notes: Chimeric antigen receptor on the surface of transduced cells; CD8α hinge and TM, CD137 costimulatory domain, CD3ζ
B11: anti-BCMA CAR of recombinant lentivirus LV 2 (SEQ ID NO: 237) (other)
chain: B10 chain with V92F, V93D, E185D
notes: as for B1
B12: anti-BCMA CAR of recombinant lentivirus LV 9 (SEQ ID NO: 597) (other)
chain: EVQLLESGGGLVQPGGSLRLSCAASGFTFGSEAMSWVRQAPGKERELVSAISGSGEVTYYADSVKGRFTISRDNSKNTLYLQMNSLRAEDTAVYYCQRLVEAKRHWGQGTQVTVSSTTTPAPRPPTPAPTIASQPLSLRPEACRPAAGGAVHTRGLDFACDIYIWAPLAGTCGVLLLSLVITLYCKRGRKKLLYIFKQPFMRPVQTTQEEDGCSCRFPEEEEGGCELRVKFSRSADAPAYQQGQNQLYNELNLGRREEYDVLDKRRGRDPEMGGKPRRKNPQEGLYNELQKDKMAEAYSEIGMKGERRRGKGHDGLYQGLSTATKDTYDALHMQALPPR
notes: as for B1
B13: anti-BCMA CAR of recombinant lentivirus LV 8 (SEQ ID NO: 525) (other)
chain: DIQMTQSPSSLSASVGDRVTITCQASQDIANYLNWYQQKPGKAPKLLIYDASNLETGVPSRFSGSGSGTDFTFTISSLQPEDIATYYCQQHFNLPLTFGGGTKVEIKGGGGSGGGGSGGGGSGGGGSQITLKESGPTLVKPTQTLTLTCTFSGFSLSTSGVGVGWIRQPPGKALEWLALIYWNDEKRYSPSLKSRLTITKDTSKNQVVLTMTNMDPVDTAVYYCAREGSHDYKSSNWFDPWGQGTLVTVSSTTTPAPRPPTPAPTIASQPLSLRPEACRPAAGGAVHTRGLDFACDIYIWAPLAGTCGVLLLSLVITLYCKRGRKKLLYIFKQPFMRPVQTTQEEDGCSCRFPEEEEGGCELRVKFSRSADAPAYQQGQNQLYNELNLGRREEYDVLDKRRGRDPEMGGKPRRKNPQEGLYNELQKDKMAEAYSEIGMKGERRRGKGHDGLYQGLSTATKDTYDALHMQALPPR
notes: as for B1

In this assay the target is T1, recombinant, phycoerythrin (PE) …. In words: flow cytometry; transduced PBMCs stained with PE-labelled BCMA extracellular domain-Fc (BCMA-PE). On the procedure:
5×10⁵ human PBMCs were plated in each well of a 24-well plate. Cells were transduced with recombinant lentiviruses LV 1 to LV 19 at a MOI 2 based on the Jurkat functional titer, or a 0.5 mL volumetric transduction if MOI 2 was not achievable. Seven days post-transduction, PBMCs were harvested and stained with BCMA-PE and analyzed by flow cytometry to assess the percentage of anti-BCMA CAR expressing cells. FIG. 2B.
In general terms: In flow cytometry, cells or beads pass a laser one at a time.
In the case of B1, the binding result was “binds”.
Take B2: the binding result is on record as “binds”.
For B3 the value was “binds”; for B4, “binds”; for B5, “binds”.
Take B6: the binding result is recorded as “binds”.
Consider B7, for which the binding result is on record as “binds”.
Next, B8: “binds”; B9: “binds”; B10: “binds”.
Regarding B11, the binding result is “binds”.
Turning to B12, the binding result was “binds”.
Regarding B13, the binding result was “binds”.

For the origin of these results see patent US20250101122A1 (KELONIA THERAPEUTICS, published 2025).
